Data from publication PMC8943035.

Molecular target: muscle RAS oncogene homolog (MRAS) fused to mCherry, expressed from pmCherry-MRAS (UniProt O14807)
Test: FRET or BRET; FRET between GFP (donor, excited at 488 nm) and mCherry (acceptor, emission 610 nm) fusion proteins, imaged in MCF-7 cells

G-protein gamma subunit 2 (GNG2) fused to EGFP, expressed from pEGFP-GNG2 (from UniProt P59768 1-71) (natural protein)
FRET efficiency: 11%
